B1: HDV Ribozyme (parent)
chain: GGCCGGCAUGGUCCCAGCCUCCUCGCUGGCGCCGGCUGGGCAACAUUCCGAGGGGACCGUCCCCUCGGUAAUGGCGAAUGGGACCCA

Variants of: B1
Assay: self-cleavage, relative activity (ratio to wild type); higher = more cleavage; co-transcriptional

| Variant | self-cleavage |
| --- | --- |
| GGCCGGCAUGGUCCCAGCCUCCUCGCUGGCGCCCGCUGGGCAACAUUCCGAGGGGUCCGUCCCCUCGGUAAUGGCGAAUGGGACCCA [G34C A56U] | 0.277 |
| GGCCGGCAUGGUCCCAGCCUCCUCGCUGGAGCCGGCUGGGCAACAUUCCGAGGGGACCGUCCCCUCGGUAAUGGCGAAUGGGAUCCA [C30A C84U] | 0.13 |
| GGCCGGCAUGGUCCCAUCCUCCUCGCUGGCGCCGGCUGGGCAACAUUCCGAGGGGACCGUCCCCUCGGUAAUGGGGAAUGGGACCCA [G17U C75G] | 0.0594 |
| GGCCGGCAUGGACCCAGCCUUCUCGCUGGCGCCGGCUGGGCAACAUUCCGAGGGGACCGUCCCCUCGGUAAUGGCGAAUGGGACCCA [U12A C21U] | 0.0831 |
| GACCGGCAUGGUCCCAGCCUCCUCGCUGGCGCCGGCUGGGCAACAUUCCGAGGAGACCGUCCCCUCGGUAAUGGCGAAUGGGACCCA [G2A G54A] | 0.194 |
| GGCCGGCAAGGUCGCAGCCUCCUCGCUGGCGCCGGCUGGGCAACAUUCCGAGGGGACCGUCCCCUCGGUAAUGGCGAAUGGGACCCA [U9A C14G] | 0.604 |
| GGCCGGCAUGGUCCCAGACUCCUCGCUGGCGCCGGCUGGGCAACAUUCUGAGGGGACCGUCCCCUCGGUAAUGGCGAAUGGGACCCA [C18A C49U] | 0.133 |
| GGCCGGCAUGGUCCCAGCCUCCUCGCUGGCGUCGGCUGGGGAACAUUCCGAGGGGACCGUCCCCUCGGUAAUGGCGAAUGGGACCCA [C32U C41G] | 0.429 |
| GGCCGGCAUGGUCCCAGCCUCCUCGCUGGCGCCGGCUGGGCAACAUUCCGAGGGGACCGUCCCCUCGGAAAUGGCGAAUCGGACCCA [U69A G80C] | 0.38 |
| GGCCGGCAUGGUCCUAGCCUCCUCGCUGGCGCCGGCUGGGCAACAUUCCGAGGGGACCGUCCCCUCGCUAAUGGCGAAUGGGACCCA [C15U G68C] | 0.597 |
| GGCCGGCAUGGUCCCAGCCUCCUCGCUGGCGCCGGCUGGGCAACAUUCCGAGGGGAUCCUCCCCUCGGUAAUGGCGAAUGGGACCCA [C57U G59C] | 0.89 |
| GGCUGGCAUGGUCCCAGCCUCCUCGCUGGCGCCGGCUGGGCAACAUUCCGAGGGGACCGUCCCCUCGGUAAUUGCGAAUGGGACCCA [C4U G73U] | 0.138 |
| GGCAGGCAUGGUCCCAGCCUCCUAGCUGGCGCCGGCUGGGCAACAUUCCGAGGGGACCGUCCCCUCGGUAAUGGCGAAUGGGACCCA [C4A C24A] | 0.0475 |
| GGCCGGCAUGGUCCCAGCCUCCUCGCUGGUGCCGGCUGGGCAACCUUCCGAGGGGACCGUCCCCUCGGUAAUGGCGAAUGGGACCCA [C30U A45C] | 0.138 |
| GGCCGGCAUGGUCCCACCCUCCUCGCUGGCUCCGGCUGGGCAACAUUCCGAGGGGACCGUCCCCUCGGUAAUGGCGAAUGGGACCCA [G17C G31U] | 0.0831 |
| GGCCGGCAUGGUCCCAGCCUCCUCGCUGGCGCAGGCUGGGCAACAUUCCGAGGGGACCGUCCCCUCGGUAAUGGCGAAUGGGACGCA [C33A C85G] | 0.309 |
| GGCCGGCAUGGUCCCAGCCUCCUCGCCGGCGCCGGCUGGGCAACAUUCCGAGGGGACCGUCCCCUCGGUAAUGGCGAAUGGGGCCCA [U27C A83G] | 0.727 |
| GGCCGGCACGGUCCCAGCCUCCUCGCUGGCGCCGGCUGGGCAACAUUCCGAGGGGGCCGUCCCCUCGGUAAUGGCGAAUGGGACCCA [U9C A56G] | 0.935 |
| GGCCGGCAUGGUCCCAGCCUCCUCGCUGGCGCCGGCUGGGCAACAUUCCGAGAGGACCGUCCCCUCGGUAAUGGCGAAUGGGACCAA [G53A C86A] | 1.16 |
| GGCCUGCAUGGUCCCAGCCUCCUCGCUGGCGCCGGCUGGGCAACAUUCCGAGGGGACCGUCCCCUCGGUAAUGGCGAAUGGGACUCA [G5U C85U] | 0.399 |
| GGCCGGCAUGCUCCCAGCCUCCUCGCUGGCGCCGGCUGGGCAACAUUCCGAGGGGACCGUCCCCUCGGUUAUGGCGAAUGGGACCCA [G11C A70U] | 0.399 |
| GGCCGGCAUGGUCCCAGCCUCCUCGCUGGCGCCGGCUGGGCAACAUUCCGCGGGGACCGUCCCCUCGGUAAUGUCGAAUGGGACCCA [A51C G74U] | 0.383 |

| Variant | self-cleavage |
| --- | --- |
| GGCCGGCAUGGUCCCAGCCUCCUCGCUGGCGCCGGCUGGGCAACAUUACGAGGGGAACGUCCCCUCGGUAAUGGCGAAUGGGACCCA [C48A C57A] | 0.978 |
| GGCCGGCAUGGUCCCAGCCUCCUCGCUGGCGCCGGCUGGGCAACAUUCCGAGGGAACCGUCCCCUCGGUAAUGGCGAAUGGGACCCA [G55A] | 0.996 |
| GGCCGGCAUGGUCCCAGCCUCCUCGCUGGCGCCGGCUGGGUAACAUUCCGAGGGGACCGUCCCCUCUGUAAUGGCGAAUGGGACCCA [C41U G67U] | 0.604 |
| GGCCGGCAUGGUCCCAGCCUCCUCGCUGGCGCCGGCUGGGCAACAUUCCGACGGGACCGUCCCCUCGGUAAUGGCGAAUAGGACCCA [G52C G80A] | 0.475 |
| GGCCGGCAUGGUCCCAGGCUCCUCGCUGGCGCCGGCUGGGCAACAUUCCGGGGGGACCGUCCCCUCGGUAAUGGCGAAUGGGACCCA [C18G A51G] | 0 |
| GGCCGGCAUGGUCCCAGCCUCUUCGCUGGCGCCGGCUGGGCAACACUCCGAGGGGACCGUCCCCUCGGUAAUGGCGAAUGGGACCCA [C22U U46C] | 0.268 |
| AGCCGGCAUGGUCCCAGCCUCCUCGCUGGCGCCAGCUGGGCAACAUUCCGAGGGGACCGUCCCCUCGGUAAUGGCGAAUGGGACCCA [G1A G34A] | 0.136 |
| GGCCGGCAUGGUCCCAGCCUCCUCGCUGGCGCCGGGUGGGCAACAUUCCGAGGGGACCGUCCCCUCGGUAAUGGCGAAUGGGACCCA [C36G] | 0.13 |
| UGCCGGCAUGGUCCCAGCCUCCUCGCUGGCGCCGGCUGGGCAACGUUCCGAGGGGACCGUCCCCUCGGUAAUGGCGAAUGGGACCCA [G1U A45G] | 0.291 |
| GGCCGGCAUGGUCCCAGCCUCCUCGCUGCCGCCGGCUGGGCAACAUUCCGAGGGGACCGUCCCCUCCGUAAUGGCGAAUGGGACCCA [G29C G67C] | 0.104 |
| GGCCGGCAUCGUCCCAGCCUCCUCGCUGGCGCCGGCUGGGCAACAUUCCGAGGGGACCGUCCCCUCGCUAAUGGCGAAUGGGACCCA [G10C G68C] | 0.705 |
| GGCCGGCAUCGUCCCAGCCUCCUCGCUGGCGCCGGCUGGGCAACAUUCCGAGGGGACCGUCCCCUCGGUAAUGGCGAAUGGGUCCCA [G10C A83U] | 0.465 |
| GGCCGGUAUGGUCCCAACCUCCUCGCUGGCGCCGGCUGGGCAACAUUCCGAGGGGACCGUCCCCUCGGUAAUGGCGAAUGGGACCCA [C7U G17A] | 0.332 |
| GGCCGGCAUGGUCCCCGCCUCCUCGCUGGCGCCGUCUGGGCAACAUUCCGAGGGGACCGUCCCCUCGGUAAUGGCGAAUGGGACCCA [A16C G35U] | 0.107 |
| GGCCGGCAUGGUCCCAGCCUGCUCGCUGGCGCCGGCUGGGCAACAUUCCGAGGGGAACGUCCCCUCGGUAAUGGCGAAUGGGACCCA [C21G C57A] | 0.166 |
| GGCCGGCAUGGUCCCAGCCUCCACGCUGGCGCCGGCUGGGCAACAUUCCGAGAGGACCGUCCCCUCGGUAAUGGCGAAUGGGACCCA [U23A G53A] | 0.95 |
| GGCCGGCAUGGUCCCAGCCUCCUCGCUGGCGCCGGCUGGGCAAUAGUCCGAGGGGACCGUCCCCUCGGUAAUGGCGAAUGGGACCCA [C44U U46G] | 0.712 |
| GGCCAGCAUGGUCCCAGCCUCCUCGCUGGCGCCGGCUGCGCAACAUUCCGAGGGGACCGUCCCCUCGGUAAUGGCGAAUGGGACCCA [G5A G39C] | 0.119 |
| GGCCGGCAUGGUCCCAGCCUCCUCGCUGGCGCCGGAUGGGCAACAUUCCGAGGGGACCGUCCCCUCGGUAAUGGCGAAUGCGACCCA [C36A G81C] | 0.102 |
| GGCCGGCAUGGUCCCAGCCUCCUCGCUGGCGCCGGCUGGGCAACAUUCCGAGGGGACCGUCCCCUCGGGAAUAGCGAAUGGGACCCA [U69G G73A] | 0.746 |
| GGCCGUCAUGGUCCCAGCCUCCUCGCUGGCGCCGGCUGGGCAACAUUCCGAGGGGACCGUCCCCUCGGUAAUGGCGAAUGGGACCUA [G6U C86U] | 0.633 |
| GGCCGGCAUGGUUCCAGCCUCCUCGCUGGCGCUGGCUGGGCAACAUUCCGAGGGGACCGUCCCCUCGGUAAUGGCGAAUGGGACCCA [C13U C33U] | 0.397 |

| Variant | self-cleavage |
| --- | --- |
| GGCCGGCAUGGUCCAAGCCUCCUCGCUGGCGCCGGCUGGGCAACAUUCCGAGGGGACCGUCCCCUCGGCAAUGGCGAAUGGGACCCA [C15A U69C] | 0.598 |
| GGCCGGCAUGGUCCCAGCCUCCUCGCUGGCGCCGGCUGGGCAACAUUCCGAGGGGACCAUCCCCUCGGUAAUGGCGAAUGGGAACCA [G59A C84A] | 0.929 |
| GGCCGGCAUGGUCCCAGCCUCCUCGCUGGCGCCGGCUGGGCAACAUUCCGUGGGGACCGUCCCCUCGGUAAUGGCGAAUGGGACCUA [A51U C86U] | 0.831 |
| GGCCGGCAUGGUCCCAGCCUCCUCGCUGGCGCCGGCUUGGCAACAUUCCGAGGGGACCGUCCCCUCGGUAAUGGCGAAUAGGACCCA [G38U G80A] | 0.102 |
| GGCCGGCAUGGCCCCAGCCUCCUCGCUGGCGCCGGCUGGGCAACAUUCCGAGGGGACCGUCCCCUCGGUAAUGGCGAAUGGGAUCCA [U12C C84U] | 0.208 |
| GGCAGGCAUGGUCCCAGCCUCCUCGCUGGCGCCGGCUGGGCAACAUUCCUAGGGGACCGUCCCCUCGGUAAUGGCGAAUGGGACCCA [C4A G50U] | 0.372 |
| GGCCGGCAUGGUCCCAGCCUCCUCGCCGGCGCCGGCUGGGCAACAUUCCGAGGGGACCGUCCCCUCGGUAAUGGCGAAUGGGAACCA [U27C C84A] | 0.923 |
| GGCCGGCAUGGUCCCAGCCUCCUCGCUGGCGCCGGCGGGGCAACAUUCCGAGGGGACCGUCCCCUCGGGAAUGGCGAAUGGGACCCA [U37G U69G] | 0.0723 |
| GGCCGGCAUGGUCCCAGCCUCCUCGAUGGCGCCGGCUGGGCAACAUUCCGAGGGGCCCGUCCCCUCGGUAAUGGCGAAUGGGACCCA [C26A A56C] | 1.06 |
| GGCGGGCAUGGUCCCAGCCUCCUCGCCGGCGCCGGCUGGGCAACAUUCCGAGGGGACCGUCCCCUCGGUAAUGGCGAAUGGGACCCA [C4G U27C] | 0.0437 |
| GGCCGGCAUGGUCCCAGCCUCCUCGCUGGCGCCGGCUGGGCAACAUUCCGAGGCGACCGUUCCCUCGGUAAUGGCGAAUGGGACCCA [G54C C61U] | 1.01 |
| GGCCGGCAUGGUCCCAGCCUCCUCGCUGGCGCCGGCUGGUCAACAUUCCCAGGGGACCGUCCCCUCGGUAAUGGCGAAUGGGACCCA [G40U G50C] | 0.626 |
| GGCCGGCAUGGUCCCAGACCCCUCGCUGGCGCCGGCUGGGCAACAUUCCGAGGGGACCGUCCCCUCGGUAAUGGCGAAUGGGACCCA [C18A U20C] | 0 |
| GGCCGGCAUGGUCCCAGCCUCCUCGCUGGCGCCGGCUGGGCAACAUUCCGAGGGGACCGUCCCCUCGAUUAUGGCGAAUGGGACCCA [G68A A70U] | 1.12 |
| GGCCGGCAUGGUCCCAGCCUCCUCGCUGGCGCCGGCUGGGCAACAUUCCGAGGGGACUGUCCCCUCGGUAAUGGCGUAUGGGACCCA [C58U A77U] | 0.68 |
| GGCCGGCAUGGUCCCAGCCUCCUCGCUGGCGCCGGCUGGGCCACAUUCCGAGGGAACCGUCCCCUCGGUAAUGGCGAAUGGGACCCA [A42C G55A] | 0.578 |
| GGCCGGCAUGGUCCCAGCCUCCUCGCUGGCACCGGCUGGGCAACAUUCCGAGGGGACCGUCCCCUCCGUAAUGGCGAAUGGGACCCA [G31A G67C] | 0.513 |
| GGCCGGCAUGGUCCCAGCCUCUUCGCUGGCGCCGGCUGGGCAACAUUCCGAGGGGACCGUCCCCUCGGUAAUGGCGCAUGGGACCCA [C22U A77C] | 0.141 |
| GGCCGGCAUGGUCCCAGCCUCCUCGCUGGCGCCGGCUGGACAACAUUCCGAGGGGACCGUCCCCUCGGUAAUGGCGAAUGGGUCCCA [G40A A83U] | 0.251 |
| GGCCGGCAUGGUCCCAGCCUCCUCGCUGGCGACGGCUGGGCAACAUUCCGAGGGGACCGUCCCCUCGGUAAUCGCGAAUGGGACCCA [C32A G73C] | 0.0906 |
